This passage reports cell association (uptake) by Hep G2 cells, 1 uM conjugate alone, 37 C, two hours (pmol per 10^6 cells), cell association (uptake) by Hep G2 cells, 1 uM conjugate with a 100-fold excess of free 5, 37 C, two hours (pmol per 10^6 cells) and uptake by Hep G2 cells, 1 uM conjugate, 37 C, about 24 hours (pmol per 10^6 cells) results from patent US20060183886A1.

The experiment concerns the target asialoglycoprotein receptor on Hep G2 cells (human (Hep G2 cells)) (UniProt P07306). In words: cell-based or functional assay.
Sequence of UniProt P07306 (P07306 whole entry): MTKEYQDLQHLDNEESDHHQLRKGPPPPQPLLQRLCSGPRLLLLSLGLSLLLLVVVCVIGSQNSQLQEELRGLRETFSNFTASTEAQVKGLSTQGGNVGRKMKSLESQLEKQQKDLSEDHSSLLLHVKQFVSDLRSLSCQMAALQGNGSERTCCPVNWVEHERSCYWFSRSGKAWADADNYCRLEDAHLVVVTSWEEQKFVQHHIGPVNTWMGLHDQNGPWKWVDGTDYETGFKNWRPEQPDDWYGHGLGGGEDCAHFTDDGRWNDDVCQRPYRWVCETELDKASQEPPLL

With [YEE(ah-GalNAc)3]-SMCC-AET-pU^mpT7, the cell association (uptake) by Hep G2 cells, 1 uM conjugate alone, 37 C, two hours (pmol per 10^6 cells) turned out to be 7.8; the cell association (uptake) by Hep G2 cells, 1 uM conjugate with a 100-fold excess of free 5, 37 C, two hours (pmol per 10^6 cells) amounted to 0.42; the uptake by Hep G2 cells, 1 uM conjugate, 37 C, about 24 hours (pmol per 10^6 cells) is 26.6.
